Experimental data reported in patent publication US20230028880A1, “CD38-BINDING AGENTS AND USES THEREOF” (Biohaven Therapeutics Ltd., priority 2019, published 2023).
Values joined by “and” are separate entries in the source; they are usually repeats but may differ in a detail not shown here. Equal values may be shown once. *1 amine or outer side, *2 acyl side, *3 side chain or, on linkers, in order; H or OH if unused. Bridges are numbered along the chain shown (N, C = ends). Roman numbers before positions name the chains, in order. Where no end group is shown, it is not given here. [ ]: non-standard residue; d: D form. d(γGlu) = O=C(O)[C@@H](CCC(=O)[*:2])N[*:1]; Bip = N[C@@H](Cc1ccc(-c2ccccc2)cc1)C(=O)O; PEG8 = NCCOCCOCCOCCOCCOCCOCCOCCOCCC(=O)O; NMeF = CN[C@@H](Cc1ccccc1)C(=O)O; Ahp(2) = CCCCC[C@H](N)C(=O)O

Assays:
[1] = molecular target: T1, CD38 (human, UniProt P28907 43-300, limits assumed); test: ELISA; larger values represent binding
T1 construct: also called cluster of differentiation 38; cyclic ADP ribose hydrolase

[2] = molecular target: CD38 (human, UniProt P28907 1-300); test: cell-based or functional assay
[3] = molecular target: CD38 on Daudi cells (ATCC CCL-213) (human) (UniProt P28907); test: cell-based or functional assay

B1: A L H MeF V L P Bph V A V C (peptide)
peptide: ALH[NMeF]VLP[Bip]VAVC
modifications: not fully specified (N-terminus, bridges); printed as A L H MeF V L P Bph V A V C
notes: Alanine variant at position 10
Question: For B1, which “Binding Assay (ELISA signal)” value [1] is on record?
Answer: 0.1

B2: A L H MeF V L P Bph V W A C (peptide)
peptide: ALH[NMeF]VLP[Bip]VWAC
modifications: not fully specified (N-terminus, bridges); printed as A L H MeF V L P Bph V W A C
notes: Alanine variant at position 11
Question: B2 was tested. Which “Binding Assay (ELISA signal)” value [1] did it give?
Answer: 0.41

B3: A L H MeF A L P Bph V W V C (peptide)
peptide: ALH[NMeF]ALP[Bip]VWVC
modifications: not fully specified (N-terminus, bridges); printed as A L H MeF A L P Bph V W V C
notes: Alanine variant at position 5
Question: With B3 as the binder, how does the “Binding Assay (ELISA signal)” value [1] read?
Answer: 0.47

B4: A L H MeF V A P Bph V W V C (peptide)
peptide: ALH[NMeF]VAP[Bip]VWVC
modifications: not fully specified (N-terminus, bridges); printed as A L H MeF V A P Bph V W V C
notes: Alanine variant at position 6
Question: B4 was tested. Which “Binding Assay (ELISA signal)” value [1] did it give?
Answer: 0.09

B5: I-28 (peptide)
peptide 1: {‑C(O)CH2‑}-AR[Ahp(2)]YHDGVL[Bip][Ahp(2)]DC-{PEG8-d(γGlu)-d(γGlu)-D‑Glu(side chain amide of 12-aminododecanoic acid)-d(γGlu)-d(γGlu)-Gly-Gly}
peptide 2: DCAWHLGELVWCT
modifications: disulfide II:2-II:12; also: chain 2 joined to the end of the chain 1 linker, thioether at chain A 13 to a chain's N-terminus
Question: For B5, which “EC50 (nM), ADCC reporter cells” value [2] is on record?
Answer: 14 nM

B6: A L H MeF V L P A V W V C (peptide)
peptide: ALH[NMeF]VLPAVWVC
modifications: not fully specified; printed as A L H MeF V L P A V W V C
notes: Alanine variant at position 8
Question: Which “Binding Assay (ELISA signal)” value [1] does the source give for B6 here?
Answer: 0.09

B7: A L H MeF V L A Bph V W V C (peptide)
peptide: ALH[NMeF]VLA[Bip]VWVC
modifications: not fully specified (N-terminus, bridges); printed as A L H MeF V L A Bph V W V C
notes: Alanine variant at position 7
Question: With B7 as the binder, how does the “Binding Assay (ELISA signal)” value [1] read?
Answer: 0.11

B8: A L H A V L P Bph V W V C (peptide)
peptide: ALHAVLP[Bip]VWVC
modifications: not fully specified (N-terminus, bridges); printed as A L H A V L P Bph V W V C
notes: Alanine variant at position 4
Question: For B8, which “Binding Assay (ELISA signal)” value [1] is on record?
Answer: 0.1

B9: I-30 (peptide)
peptide 1: AR[Ahp(2)]YHDGVL[Bip][Ahp(2)]DC-{4‑aminobutanoic acid}
peptide 2: DCAWHLGELVWCT-NH2
modifications: disulfide II:2-II:12; also: thioether at chain A 13 to a chain's N-terminus
Question: What does the source list for B9?
Answer: % dead cells at 1 nM [3]: 14.3% and 14.7%; % dead cells at 3 nM [3]: 14.7% and 15.7%; % dead cells at 10 nM [3]: 14.1%; % dead cells at 30 nM [3]: 16.3% and 15.3%; % dead cells at 100 nM [3]: 17.1% and 18.1%; % dead cells at 300 nM [3]: 19% and 20.6%; % dead cells at 3000 nM [3]: 18.1% and 17.5%; EC50 (nM), killing of target cells [3]: 175 nM; EC50 (nM), ADCC reporter cells [2]: 12 nM

B10: A L H MeF V L P Bph A W V C (peptide)
peptide: ALH[NMeF]VLP[Bip]AWVC
modifications: not fully specified (N-terminus, bridges); printed as A L H MeF V L P Bph A W V C
notes: Alanine variant at position 9
Question: With B10 as the binder, how does the “Binding Assay (ELISA signal)” value [1] read?
Answer: 0.12
